Data on 2 molecules can be found in patent US20200407442A1 (WUXI BIOLOGICS IRELAND, published 2020).

For experiment [1], the target named is T1, Variant 5: xPro1.FL-x5 (human; mouse).
T1 construct: Chimeric full-length LAG-3 on transfected 293F cells
T1 chain: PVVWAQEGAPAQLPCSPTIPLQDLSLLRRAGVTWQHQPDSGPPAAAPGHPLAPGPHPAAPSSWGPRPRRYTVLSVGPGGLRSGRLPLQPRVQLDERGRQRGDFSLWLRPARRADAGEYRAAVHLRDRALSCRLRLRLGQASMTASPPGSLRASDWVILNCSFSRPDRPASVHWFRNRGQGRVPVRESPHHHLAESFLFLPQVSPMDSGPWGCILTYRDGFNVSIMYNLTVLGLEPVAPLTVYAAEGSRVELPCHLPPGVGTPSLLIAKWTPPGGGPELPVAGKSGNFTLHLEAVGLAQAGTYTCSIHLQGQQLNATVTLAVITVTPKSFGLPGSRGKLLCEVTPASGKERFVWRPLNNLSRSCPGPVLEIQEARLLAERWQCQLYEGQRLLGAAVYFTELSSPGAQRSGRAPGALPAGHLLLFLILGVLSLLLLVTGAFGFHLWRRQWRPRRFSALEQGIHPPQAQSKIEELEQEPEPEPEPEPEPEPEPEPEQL
The experiment is described as follows: FACS, 1 ug/mL antibody, transfected 293F cells. The procedure:
(§1) The 10 variants were cloned into pcDNA3 vector and used for 293F cell transfection. Briefly, 293F cells were diluted to a density of 1×10⁶ cells/mL with FreeStyle 293F medium and aliquots of 3 mL/well were added to 24-well plate. Transfections were performed using 293fectin reagent (Life Technologies). For each transfection, 3 μg of DNA were diluted in 150 μOpti-MEM I-reduced serum medium (Life Technologies), and then combined with 6μL 293fectin reagent pre-diluted in 150 μL Opti-MEM I reduced serum medium. The DNA/[…] mixture was allowed to stand at 25° C. for 20 min before being added to the culture. The transfected cells were analyzed by flow cytometry at 48 h post-transfection.
(§2) Binding of antibodies to chimeric LAG-3 variants or full length human/mouse LAG-3 was analyzed by flow cytometry. Briefly, 1 μg/mL antibodies were incubated with chimeric LAG-3-expressing transfected 293F cells for 1 hour at 4° C., and then incubated with 3 μg/mL goat anti-human IgG Fc R-PE (Jackson) for 40 min at 4° C. Cells were analyzed with flow cytometer.
(In general: A flow cytometer gives signals particle by particle.)

For experiment [2], the target named is T2, Variant 9: xPro1.FL-x9 (human; mouse).
T2 construct: Chimeric full-length LAG-3 on transfected 293F cells
T2 chain: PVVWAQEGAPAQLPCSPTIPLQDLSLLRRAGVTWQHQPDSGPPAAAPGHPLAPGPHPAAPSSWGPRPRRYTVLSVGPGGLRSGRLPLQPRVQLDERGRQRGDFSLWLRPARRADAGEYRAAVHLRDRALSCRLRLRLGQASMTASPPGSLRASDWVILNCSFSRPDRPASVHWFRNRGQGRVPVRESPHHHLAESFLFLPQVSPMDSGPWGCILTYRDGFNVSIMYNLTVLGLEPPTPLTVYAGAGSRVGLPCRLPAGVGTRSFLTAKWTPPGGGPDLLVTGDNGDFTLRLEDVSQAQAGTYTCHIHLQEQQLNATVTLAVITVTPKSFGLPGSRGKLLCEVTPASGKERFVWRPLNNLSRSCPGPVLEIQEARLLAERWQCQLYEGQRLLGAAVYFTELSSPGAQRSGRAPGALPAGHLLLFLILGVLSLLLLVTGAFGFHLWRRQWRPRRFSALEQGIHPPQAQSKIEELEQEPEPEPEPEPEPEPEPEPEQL
The experiment is described as follows: FACS, 1 ug/mL antibody, transfected 293F cells. Here is the method:
as §1, §2

For experiment [3], the target named is T3, Variant 6: xPro1.FL-x6 (human; mouse).
T3 construct: Chimeric full-length LAG-3 on transfected 293F cells
T3 chain: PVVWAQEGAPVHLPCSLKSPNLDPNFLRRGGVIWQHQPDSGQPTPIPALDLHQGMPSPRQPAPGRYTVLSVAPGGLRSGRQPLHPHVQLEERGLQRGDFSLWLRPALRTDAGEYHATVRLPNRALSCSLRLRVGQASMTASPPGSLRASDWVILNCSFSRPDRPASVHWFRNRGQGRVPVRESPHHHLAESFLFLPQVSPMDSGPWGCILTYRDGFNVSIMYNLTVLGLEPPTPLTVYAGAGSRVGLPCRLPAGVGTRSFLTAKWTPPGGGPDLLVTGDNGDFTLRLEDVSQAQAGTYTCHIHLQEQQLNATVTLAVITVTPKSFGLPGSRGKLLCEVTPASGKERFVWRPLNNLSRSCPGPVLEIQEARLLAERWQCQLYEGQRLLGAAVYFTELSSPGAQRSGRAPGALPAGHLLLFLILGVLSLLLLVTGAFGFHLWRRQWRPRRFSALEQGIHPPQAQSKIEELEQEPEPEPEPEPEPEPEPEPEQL
The experiment can be described thus: FACS, 1 ug/mL antibody, transfected 293F cells. The procedure:
as §1, §2

For experiment [4], the target named is T4, full-length human LAG-3 on cells (human, UniProt P18627 23-525).
T4 construct: Expressed on Flp-In-293, CHO or 293F transfectants; also called hPro1.FL; cell surface human LAG-3
T4 sequence: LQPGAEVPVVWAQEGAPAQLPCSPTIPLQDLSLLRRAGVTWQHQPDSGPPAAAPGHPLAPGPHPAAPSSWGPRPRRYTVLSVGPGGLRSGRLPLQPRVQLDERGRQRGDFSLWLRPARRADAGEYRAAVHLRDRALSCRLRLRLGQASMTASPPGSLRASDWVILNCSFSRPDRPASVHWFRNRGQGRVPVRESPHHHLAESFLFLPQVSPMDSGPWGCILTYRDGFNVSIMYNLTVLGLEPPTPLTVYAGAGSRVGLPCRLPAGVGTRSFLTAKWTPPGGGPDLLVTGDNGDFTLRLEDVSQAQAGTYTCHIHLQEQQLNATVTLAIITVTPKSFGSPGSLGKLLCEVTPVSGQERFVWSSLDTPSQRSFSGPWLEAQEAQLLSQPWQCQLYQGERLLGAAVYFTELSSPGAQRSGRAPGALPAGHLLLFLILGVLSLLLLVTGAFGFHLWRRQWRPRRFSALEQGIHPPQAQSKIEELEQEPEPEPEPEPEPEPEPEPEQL
The experiment is described as follows: FACS, 1 ug/mL antibody, transfected 293F cells. The procedure:
as §1, §2

Experiment [5] has as its target T4, full-length human LAG-3 on cells. The experiment can be described thus: FACS competition on Flp-In-293 cells expressing human LAG-3: biotinylated BMK5 at 1 ug/mL, serially diluted antibody, Streptavidin-PE. The procedure:
The binding epitope of LAG-3 antibodies was binned against benchmark antibodies BMK1, BMK7 and BMK5 by FACS assay. Flp-In-293 cells expressing human LAG-3 at the cell surface were incubated with biotinylated benchmark antibodies at concentration of 1 μg/mL for 1 hour, followed by the adding of serially diluted LAG-3 antibodies. Streptavidin-PE antibody (Jackson Immunoresearch Lab) was used to detect the binding of benchmark antibodies to cells. The MFI was evaluated by flow cytometry and analyzed by FlowJo.

B1: 3.40.19-uAb-IgG4L (antibody, V domains shown)
VH: QLQLQESGPGLVKPSETLSLTCTVSGDSISSTSYYWGWIRQPPGKGLEWIGSFYYSGSTYYNPSLKSRVTISVDTSKNQFSLKLNSVTAADTAVYYCARMQLWSYDVDVWGQGTTVTVSS
VL: QSALTQPASVSGSPGQSITISCTGTSSDVGGYDYVAWYQQHPGKVPKLMIYDVSERPSGVSNRFSGSKSGNTASLTISGLQAEDEADYYCSSYTSTTTLVVFGGGTKLSVL
notes: Fully human antibody from OMT rats; IgG4 lambda by its name; also called 3.40.19-uAb-hIgG4L
In the case of B1, the MFI in experiment [1] was 7070; in experiment [2], 8320; in experiment [3], 44.1; in experiment [4], 6520. The “PE+ %” value in experiment [1] amounted to 75.9%; in experiment [2], 87.3%; in experiment [3], 0.674%; in experiment [4], 83.5%.

B2: 1.53.3-uAb-IgG4k (antibody, V domains shown)
VH: QVQLQQWGAGLLKPSETLSLTCGVYGGSFSGYYWSWIRQPPGMGLEWIGEINHRGNTNYNPSLKSRVTISEDTSKNQFSLRLSSVTAADTAVYFCTRGEDYSDYDYYGDFWGQGTLVTVSS
VL: EIVLTQSPATLSLSQGERATLSCRASQSISSYLAWYQQKPGQAPRLLIYAASNRATGIPARFSGSGSGTDFTLTISSLEPEDFAIYYCQQRSNWPLTFGGGTKVEIK
notes: Fully human antibody from OMT rats; IgG4 kappa by its name
As for B2, the MFI amounted to 6260 in experiment [1], 7030 in experiment [2], 59.9 in experiment [3] and 6540 in experiment [4]. The “PE+ %” value came to 97.1% in experiment [1], 97.3% in experiment [2], 1.86% in experiment [3] and 96.8% in experiment [4]. For the same molecule, the “IC50 (read off the curve)” value in experiment [5] was around 1 nM.
